Source: the Immune Epitope Database (IEDB)

Columns and labels:
[1] = target: HLA-A*02:12; experiment: IEDB peptide-MHC binding, purified MHC/competitive/fluorescence; filed as Kd, often an IC50 or EC50 that approximates it; ≥ and ≤ were set here for values at or beyond the usual limits of such assays; conditions: source organism: Desulfatibacillum alkenivorans AK-01
[2] = target: HLA-A*02:03; experiment: as above; conditions: source organism: Desulfatibacillum alkenivorans AK-01
[3] = target: HLA-A*02:06; experiment: as above; conditions: source organism: Desulfatibacillum alkenivorans AK-01
[4] = target: HLA-A*02:11; experiment: as above; conditions: source organism: Desulfatibacillum alkenivorans AK-01
[5] = target: HLA-A*02:19; experiment: as above; conditions: source organism: Desulfatibacillum alkenivorans AK-01
[6] = target: HLA-A*02:16; experiment: as above; conditions: source organism: Desulfatibacillum alkenivorans AK-01
[7] = target: HLA-A*02:01; experiment: as above
[8] = target: HLA-A*69:01; experiment: as above
[9] = target: HLA-B*07:02; experiment: IEDB peptide-MHC binding, purified MHC/competitive/fluorescence; ≥ and ≤ were set here for values at or beyond the usual limits of such assays
[10] = target: HLA-A*11:01; experiment: as above
[11] = target: HLA-A*03:01; experiment: as above
[12] = target: HLA-B*57:01; experiment: IEDB peptide-MHC binding, purified MHC/competitive/fluorescence; filed as Kd, often an IC50 or EC50 that approximates it; ≥ and ≤ were set here for values at or beyond the usual limits of such assays
[13] = target: HLA-B*27:03; experiment: as above
[14] = target: HLA-B*15:01; experiment: as above; conditions: source organism: Araucaria virus
[15] = target: HLA-B*08:01; experiment: as above
[16] = target: HLA-B*46:01; experiment: as above
[17] = target: HLA-B*51:01; experiment: as above
[18] = target: HLA-B*18:01; experiment: as above
[19] = target: HLA-B*39:01; experiment: as above
[20] = target: HLA-A*26:01; experiment: as above
[21] = target: HLA-A*02:12; experiment: IEDB peptide-MHC binding, purified MHC/direct/fluorescence; filed as Kd, often an IC50 or EC50 that approximates it; ≥ and ≤ were set here for values at or beyond the usual limits of such assays
[22] = target: HLA-A*02:03; experiment: as above
[23] = target: HLA-A*02:11; experiment: as above
[24] = target: HLA-A*02:19; experiment: as above
[25] = target: HLA-A*02:16; experiment: as above
[26] = target: HLA-A*03:01; experiment: as above
[27] = target: HLA-A*24:02; experiment: IEDB peptide-MHC binding, purified MHC/competitive/fluorescence; ≥ and ≤ were set here for values at or beyond the usual limits of such assays; conditions: source organism: Zaire ebolavirus
[28] = target: HLA-B*08:01; experiment: as above; conditions: source organism: Zaire ebolavirus
[29] = target: HLA-A*02:01; experiment: as above
[30] = target: HLA-B*15:01; experiment: as above
[31] = target: HLA-A*01:01; experiment: as above
[32] = target: HLA-B*15:17; experiment: IEDB peptide-MHC binding, purified MHC/competitive/fluorescence; filed as Kd, often an IC50 or EC50 that approximates it; ≥ and ≤ were set here for values at or beyond the usual limits of such assays; conditions: source organism: Zaire ebolavirus
[33] = target: HLA-A*68:02; experiment: IEDB peptide-MHC binding, purified MHC/direct/fluorescence; filed as Kd, often an IC50 or EC50 that approximates it; ≥ and ≤ were set here for values at or beyond the usual limits of such assays; conditions: source organism: Zaire ebolavirus
[34] = target: HLA-B*15:01; experiment: as above; conditions: source organism: Zaire ebolavirus
[35] = target: HLA-A*24:03; experiment: as above; conditions: source organism: Zaire ebolavirus
[36] = target: HLA-B*58:01; experiment: as above; conditions: source organism: Zaire ebolavirus
[37] = source organism: Desulfatibacillum alkenivorans AK-01
[38] = source organism: Sudan ebolavirus
[39] = source organism: Araucaria virus
[40] = source organism: Zaire ebolavirus
[41] = source organism: Vaccinia virus Copenhagen

Q: With KLGKAGYVV as the sequence, how does the Kd [1] read?
A: 0.0235 µM

Q: What about the Kd [2] of the same sequence?
A: 0.00229 µM

Q: And the Kd [3]?
A: 0.00192 µM

Q: And the Kd [4]?
A: 0.0013 µM

Q: And the Kd [5]?
A: 0.117 µM

Q: And the Kd [6]?
A: 0.00177 µM

Q: And the Kd [7, 37]?
A: 0.384 µM

Q: What about the Kd [8, 37] of the same sequence?
A: ≥ 20 µM

Q: With RSRRQTNTK as the sequence, how does the IC50 [9, 38] read?
A: 8.84 µM

Q: And the IC50 [10, 38]?
A: 1.47 µM

Q: And the IC50 [11, 38]?
A: 2.27 µM

Q: For ELRQLAQSL, which Kd [12, 39] is on record?
A: ≥ 20 µM

Q: What about the Kd [13, 39] of the same sequence?
A: ≥ 20 µM

Q: What about the Kd [14] of the same sequence?
A: ≥ 20 µM

Q: And the Kd [15, 39]?
A: 0.156 µM

Q: What about the Kd [16, 39] of the same sequence?
A: ≥ 20 µM

Q: What about the Kd [17, 39] of the same sequence?
A: ≥ 20 µM

Q: And the Kd [7, 39]?
A: ≥ 20 µM

Q: And the Kd [18, 39]?
A: ≥ 20 µM

Q: And the Kd [8, 39]?
A: ≥ 20 µM

Q: And the Kd [19, 39]?
A: ≥ 20 µM

Q: And the Kd [20, 39]?
A: ≥ 20 µM

Q: And the Kd ([21]; source organism: Choclo virus)?
A: ≥ 20 µM

Q: What about the Kd ([22]; source organism: Choclo virus) of the same sequence?
A: ≥ 20 µM

Q: What about the Kd ([23]; source organism: Choclo virus) of the same sequence?
A: ≥ 20 µM

Q: And the Kd ([24]; source organism: Choclo virus)?
A: ≥ 20 µM

Q: And the Kd ([25]; source organism: Choclo virus)?
A: ≥ 20 µM

Q: And the Kd ([26]; source organism: Choclo virus)?
A: ≥ 20 µM

Q: Which IC50 [9, 40] does the source give for STSPRMLTP here?
A: ≥ 168 µM

Q: And the IC50 [10, 40]?
A: 44.1 µM

Q: And the IC50 [27]?
A: 69.9 µM

Q: WPVMNHKNK was tested. Which IC50 [9, 40] did it give?
A: 53.1 µM

Q: What about the IC50 [10, 40] of the same sequence?
A: ≥ 185 µM

Q: And the IC50 [11, 40]?
A: ≥ 180 µM

Q: Which results are given for MVIFRLMRT?
A: IC50 [28]: ≥ 77.6 µM; IC50 [29, 40]: 0.478 µM; IC50 [10, 40]: ≥ 177 µM; IC50 [11, 40]: ≥ 96.6 µM

Q: Which results are given for VTLDGQQFY?
A: IC50 [30, 40]: 53.6 µM; IC50 [31, 40]: 3.88 µM; IC50 [29, 40]: ≥ 226 µM; IC50 [10, 40]: 4.92 µM; IC50 [27]: ≥ 192 µM; IC50 [11, 40]: ≥ 105 µM

Q: Which results are given for GLIQYPTAW?
A: Kd [12, 40]: ≥ 20 µM; Kd [32]: ≥ 20 µM; Kd [13, 40]: ≥ 20 µM; Kd [16, 40]: ≥ 20 µM; Kd [17, 40]: ≥ 20 µM; Kd [7, 40]: ≥ 20 µM; Kd [18, 40]: ≥ 20 µM; Kd [8, 40]: ≥ 20 µM; Kd [19, 40]: ≥ 20 µM; Kd [20, 40]: ≥ 20 µM; IC50 [30, 40]: ≥ 109 µM; IC50 [29, 40]: 3.1 µM; IC50 [27]: 13.2 µM; Kd [33]: ≥ 20 µM; Kd [34]: 2.2 µM; Kd [21, 40]: ≥ 20 µM; Kd [22, 40]: ≥ 20 µM; Kd [23, 40]: ≥ 20 µM; Kd [24, 40]: ≥ 20 µM; Kd [25, 40]: ≥ 20 µM; Kd [35]: ≥ 20 µM; Kd [36]: 0.5 µM; Kd [26, 40]: ≥ 20 µM

Q: How did the IC50 [28] turn out when EGHGFRFEV was run?
A: 69.3 µM

Q: And the IC50 [29, 40]?
A: 28.1 µM

Q: Which IC50 [30, 40] does the source give for VIFRLMRTN here?
A: ≥ 175 µM

Q: What about the IC50 [29, 40] of the same sequence?
A: 42.7 µM

Q: And the IC50 [10, 40]?
A: ≥ 90.6 µM

Q: And the IC50 [27]?
A: ≥ 150 µM

Q: And the IC50 [11, 40]?
A: 7.47 µM

Q: For LFQRTFSIP, which IC50 [28] is on record?
A: ≥ 270 µM

Q: And the IC50 [29, 40]?
A: ≥ 72.9 µM

Q: What about the IC50 [27] of the same sequence?
A: 1.04 µM

Q: KLERRMENL was tested. Which Kd ([15]; source organism: Influenza A virus (A/Osaka/930/88(H1N1))) did it give?
A: ≥ 20 µM

Q: ISDRATRKY was tested. Which IC50 [30, 38] did it give?
A: 57.6 µM

Q: What about the IC50 [31, 38] of the same sequence?
A: 1.89 µM

Q: What about the IC50 [10, 38] of the same sequence?
A: 18.8 µM

Q: What about the IC50 [11, 38] of the same sequence?
A: 38.6 µM

Q: Which IC50 [30, 41] does the source give for AIITPIVFY here?
A: 6.37 µM

Q: And the IC50 [29, 41]?
A: ≥ 122 µM

Q: What about the IC50 [10, 41] of the same sequence?
A: 0.941 µM

Q: What about the IC50 [11, 41] of the same sequence?
A: ≥ 153 µM

Q: With GQHIEGRQT as the sequence, how does the IC50 [30, 40] read?
A: ≥ 148 µM
